What was measured:
Uhgb_MP [1] = biological target: T1, Uhgb_MP (uncultured organism, UniProt D9ZDQ9); experiment: X-ray crystal structure, co-crystallization; format: binding; design: homohexamer, 240 kDa by SEC-MALLS; conditions: +1 subsite; with phosphate, glycerol in -1 subsite; co-crystallized with 5 mM N-acetylglucosamine, pH 7.0; 4C1 chair; 1.60 A; also with mannose in 4udk (1.76 A)
Uhgb_MP [2] = biological target: T1, Uhgb_MP; conditions: catalytic site; phosphate from 20 mM potassium phosphate buffer pH 7.0; glycerol in -1 subsite; 1.80 A; also in 4udj, 4udg, 4udk
[3] = biological target: Uhgb_MP, β-1,4-mannopyranosyl-chitobiose phosphorylase (GH130_2 mannoside phosphorylase) (uncultivated Bacteroides bacterium (human gut)); experiment: SEC-MALS; 30 µl of gel-filtered Uhgb_MP at 6 mg/ml on Superdex 200 HR 10/300 in 20 mM potassium phosphate pH 7.0, 150 mM NaCl, 0.4 ml/min, 15°C
[4] = biological target: Uhgb_MP, β-1,4-mannopyranosyl-chitobiose phosphorylase (GH130_2 mannoside phosphorylase) (uncultivated Bacteroides bacterium (human gut)); experiment: SAXS (SEC-SAXS); Bio SEC3 300 column on line with SAXS, 10°C; phosphate buffer or Tris-glycerol buffer (aggregation seen in both); hexamer read from data in Tris-glycerol buffer with 1 mM TCEP; ab initio envelope and rigid-body modelling
[5] = biological target: Uhgb_MP, β-1,4-mannopyranosyl-chitobiose phosphorylase (GH130_2 mannoside phosphorylase) (uncultivated Bacteroides bacterium (human gut)); experiment: crystal structure; sitting-drop vapour diffusion at 12°C; protein 9-12 mg/ml in 20 mM potassium phosphate pH 7.0, 150 mM NaCl, with or without 5 mM mannose and/or 5 mM N-acetylglucosamine; PEG 3350, ammonium chloride; space group P212121, six molecules per asymmetric unit

T1 sequence (D9ZDQ9 entry or part of it): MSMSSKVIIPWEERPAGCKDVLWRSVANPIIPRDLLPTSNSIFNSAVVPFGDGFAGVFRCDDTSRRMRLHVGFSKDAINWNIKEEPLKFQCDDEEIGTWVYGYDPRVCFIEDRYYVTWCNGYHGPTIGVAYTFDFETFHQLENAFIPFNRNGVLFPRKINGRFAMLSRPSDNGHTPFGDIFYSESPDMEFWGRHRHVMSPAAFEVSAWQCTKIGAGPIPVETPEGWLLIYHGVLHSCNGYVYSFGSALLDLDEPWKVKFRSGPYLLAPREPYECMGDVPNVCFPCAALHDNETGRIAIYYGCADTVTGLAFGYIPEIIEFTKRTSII

## CC(=O)N[C@H]1C(O)O[C@H](CO)[C@@H](O)[C@@H]1O (some centres unmarked) [N-acetylglucosamine]
Uhgb_MP [1]
  X-ray crystal structure, co-crystallization: complex with N-acetylglucosamine alone (PDB entry 4udg

## O=P(O)(O)O [inorganic phosphate]
Uhgb_MP [2]
  X-ray crystal structure: Pi is deeply buried in the catalytic site, strongly stabilized by hydrogen bonds

## Uhgb_MP, β-1,4-mannopyranosyl-chitobiose phosphorylase (GH130_2 mannoside phosphorylase) (enzyme)
[3]
  stoichiometry N: 6.16
[4]
  stoichiometry N: 6
[5]
  stoichiometry N: 6
